Results on two molecules are retold here after patent US20030049831A1 (published 2003).

Experiment [1] has as its target T1, human C5b-6 complexes (human, UniProt P01031 752-1676; P01031 19-673; P13671 22-934).
T1 construct: Complex of C5b and C6
Description: ELISA, Factor H coated at 50 to 0.4 pmol/well, C5b-6 detected with anti-C6 K1.115. How it is done:
(§1) Binding of C3b, C5b-6 and HSA to recombinant FHR-5 (panel A) or Factor H (panel B) was determined by ELISA.
(§2) Recombinant FHR-5 or Factor H (Sigma) were serially diluted 1:2 in 0.1 M carbonate buffer, pH 9.3. Duplicate wells in microtitre plates were incubated with dilutions of FHR-5 or Factor H from 50 pmol/well to 0.4 pmol/well. The plates were blocked and wells incubated with human C3b, C5b-6 or HSA at 10 μg/well. C3b was detected by incubation with polyclonal rabbit anti-C3 antibody (1:1000 dilution) followed by peroxidase-conjugated swine anti-rabbit antibody (1:2000 dilution). C5b-6 and HSA were detected using K1.115 (anti-C6) and anti-HSA monoclonal antibodies, respectively, (1:500 dilution) followed by peroxidase-conjugated rabbit anti-mouse antibody (1:2000 dilution). The ELISAs were developed with O-phenylenediamine dihydrochloride. The reaction was stopped with 4M H₂SO₄ and the optical density of the solution was measured at a wavelength of 492 nm using a Behring EL31 microplate reader.
Background: An ELISA detects its analyte on a solid surface through an enzyme-linked reagent.

In experiment [2] the target is T1, human C5b-6 complexes. Description: ELISA, rFHR-5 coated at 50 to 0.4 pmol/well, C5b-6 detected with anti-C6 K1.115. The protocol: as §1, §2
For experiment [3], the target named is human serum albumin (HSA) (human, UniProt P02768 25-609). Description: ELISA, rFHR-5 coated at 50 to 0.4 pmol/well, HSA detected with anti-HSA monoclonal antibody. The protocol:
as §1, §2

Experiment [4] addresses human C3b (human, UniProt P01024 749-1663; P01024 23-667). The experiment in a line: ELISA, rFHR-5 coated at 50 to 0.4 pmol/well, C3b at 10 µg/well, detected with polyclonal anti-C3. How it is done:
as §1, §2

T1 sequence (P01031 752-1676 limits assumed, chain 1 of 3): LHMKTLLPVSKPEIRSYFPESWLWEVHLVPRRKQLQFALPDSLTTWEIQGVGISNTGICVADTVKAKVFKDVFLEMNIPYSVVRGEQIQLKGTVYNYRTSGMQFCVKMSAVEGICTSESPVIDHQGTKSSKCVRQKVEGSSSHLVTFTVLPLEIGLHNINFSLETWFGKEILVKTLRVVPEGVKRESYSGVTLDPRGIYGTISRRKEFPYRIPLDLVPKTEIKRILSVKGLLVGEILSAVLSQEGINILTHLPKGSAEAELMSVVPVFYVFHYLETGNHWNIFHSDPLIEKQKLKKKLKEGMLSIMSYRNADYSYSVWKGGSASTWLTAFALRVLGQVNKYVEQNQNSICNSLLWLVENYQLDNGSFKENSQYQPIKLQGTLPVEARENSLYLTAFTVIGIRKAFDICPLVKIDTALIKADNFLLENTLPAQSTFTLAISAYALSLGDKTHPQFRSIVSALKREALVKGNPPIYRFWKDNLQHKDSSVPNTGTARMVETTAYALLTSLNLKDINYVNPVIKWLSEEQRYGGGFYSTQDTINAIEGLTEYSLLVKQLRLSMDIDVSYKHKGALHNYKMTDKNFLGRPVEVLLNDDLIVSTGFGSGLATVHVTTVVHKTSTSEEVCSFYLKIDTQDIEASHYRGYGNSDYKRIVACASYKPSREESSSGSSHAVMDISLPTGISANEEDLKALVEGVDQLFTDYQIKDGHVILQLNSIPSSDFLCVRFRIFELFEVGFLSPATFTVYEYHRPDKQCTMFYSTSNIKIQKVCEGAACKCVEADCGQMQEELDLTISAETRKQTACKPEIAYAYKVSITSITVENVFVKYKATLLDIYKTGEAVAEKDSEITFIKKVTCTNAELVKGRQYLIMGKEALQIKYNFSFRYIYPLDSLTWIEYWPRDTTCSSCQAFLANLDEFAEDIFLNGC
T1 sequence (P01031 19-673 limits assumed, chain 2 of 3): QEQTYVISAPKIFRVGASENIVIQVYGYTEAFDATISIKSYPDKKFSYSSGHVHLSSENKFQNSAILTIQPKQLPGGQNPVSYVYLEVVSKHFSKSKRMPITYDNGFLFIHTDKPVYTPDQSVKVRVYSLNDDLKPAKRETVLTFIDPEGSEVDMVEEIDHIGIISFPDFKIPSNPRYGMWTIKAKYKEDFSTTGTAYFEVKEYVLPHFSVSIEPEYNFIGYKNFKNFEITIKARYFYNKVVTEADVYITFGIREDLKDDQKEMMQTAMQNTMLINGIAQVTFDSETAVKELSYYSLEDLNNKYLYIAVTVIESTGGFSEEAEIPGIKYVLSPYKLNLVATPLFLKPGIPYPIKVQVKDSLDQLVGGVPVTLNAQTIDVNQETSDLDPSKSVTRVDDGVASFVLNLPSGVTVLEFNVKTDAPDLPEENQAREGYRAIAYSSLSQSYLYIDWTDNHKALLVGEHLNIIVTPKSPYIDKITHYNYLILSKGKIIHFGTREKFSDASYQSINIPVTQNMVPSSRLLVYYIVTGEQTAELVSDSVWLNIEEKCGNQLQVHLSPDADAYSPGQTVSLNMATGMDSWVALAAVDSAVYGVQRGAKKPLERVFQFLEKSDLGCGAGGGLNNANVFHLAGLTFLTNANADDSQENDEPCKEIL
T1 sequence (P13671 22-934 limits assumed, chain 3 of 3): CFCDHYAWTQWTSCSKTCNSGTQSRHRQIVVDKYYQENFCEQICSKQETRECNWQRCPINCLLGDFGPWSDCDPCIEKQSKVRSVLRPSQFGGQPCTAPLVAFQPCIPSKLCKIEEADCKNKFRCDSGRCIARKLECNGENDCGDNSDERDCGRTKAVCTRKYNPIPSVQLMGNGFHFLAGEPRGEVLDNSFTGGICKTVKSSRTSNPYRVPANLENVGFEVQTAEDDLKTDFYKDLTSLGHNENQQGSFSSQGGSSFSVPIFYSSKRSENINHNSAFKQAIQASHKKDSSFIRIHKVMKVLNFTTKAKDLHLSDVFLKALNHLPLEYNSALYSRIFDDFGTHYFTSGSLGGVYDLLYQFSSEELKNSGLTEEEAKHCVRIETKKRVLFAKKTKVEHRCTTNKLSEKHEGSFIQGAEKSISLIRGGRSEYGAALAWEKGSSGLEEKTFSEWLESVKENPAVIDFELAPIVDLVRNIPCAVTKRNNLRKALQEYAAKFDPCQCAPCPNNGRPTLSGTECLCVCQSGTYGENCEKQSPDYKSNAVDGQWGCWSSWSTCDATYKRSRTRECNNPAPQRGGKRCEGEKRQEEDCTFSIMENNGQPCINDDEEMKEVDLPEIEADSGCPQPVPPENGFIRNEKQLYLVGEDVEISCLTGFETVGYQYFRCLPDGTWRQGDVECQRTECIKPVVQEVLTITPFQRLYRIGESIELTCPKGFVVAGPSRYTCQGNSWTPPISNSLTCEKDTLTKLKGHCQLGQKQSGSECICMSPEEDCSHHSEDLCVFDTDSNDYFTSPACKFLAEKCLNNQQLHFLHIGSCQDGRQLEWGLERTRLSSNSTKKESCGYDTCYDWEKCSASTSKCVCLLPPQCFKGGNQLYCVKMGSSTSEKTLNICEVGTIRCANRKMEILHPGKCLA
Sequence of human serum albumin (HSA) (P02768 25-609 limits assumed): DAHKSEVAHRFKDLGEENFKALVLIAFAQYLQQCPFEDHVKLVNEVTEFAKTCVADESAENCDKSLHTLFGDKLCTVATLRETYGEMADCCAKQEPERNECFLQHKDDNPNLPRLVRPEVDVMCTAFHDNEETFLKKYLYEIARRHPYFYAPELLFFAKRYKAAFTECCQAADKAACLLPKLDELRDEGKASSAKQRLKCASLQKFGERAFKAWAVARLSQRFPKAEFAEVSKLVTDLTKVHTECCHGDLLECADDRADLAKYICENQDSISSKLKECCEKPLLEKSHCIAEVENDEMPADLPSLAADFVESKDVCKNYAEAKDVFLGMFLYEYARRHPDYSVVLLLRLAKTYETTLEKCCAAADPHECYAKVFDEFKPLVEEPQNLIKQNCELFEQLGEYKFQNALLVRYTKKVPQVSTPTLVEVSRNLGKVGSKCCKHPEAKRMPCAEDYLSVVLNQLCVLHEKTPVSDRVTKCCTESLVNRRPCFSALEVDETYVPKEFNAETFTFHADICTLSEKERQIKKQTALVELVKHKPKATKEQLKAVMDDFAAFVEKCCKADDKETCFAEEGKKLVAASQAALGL
Sequence of human C3b (P01024 749-1663 limits assumed, chain 1 of 2): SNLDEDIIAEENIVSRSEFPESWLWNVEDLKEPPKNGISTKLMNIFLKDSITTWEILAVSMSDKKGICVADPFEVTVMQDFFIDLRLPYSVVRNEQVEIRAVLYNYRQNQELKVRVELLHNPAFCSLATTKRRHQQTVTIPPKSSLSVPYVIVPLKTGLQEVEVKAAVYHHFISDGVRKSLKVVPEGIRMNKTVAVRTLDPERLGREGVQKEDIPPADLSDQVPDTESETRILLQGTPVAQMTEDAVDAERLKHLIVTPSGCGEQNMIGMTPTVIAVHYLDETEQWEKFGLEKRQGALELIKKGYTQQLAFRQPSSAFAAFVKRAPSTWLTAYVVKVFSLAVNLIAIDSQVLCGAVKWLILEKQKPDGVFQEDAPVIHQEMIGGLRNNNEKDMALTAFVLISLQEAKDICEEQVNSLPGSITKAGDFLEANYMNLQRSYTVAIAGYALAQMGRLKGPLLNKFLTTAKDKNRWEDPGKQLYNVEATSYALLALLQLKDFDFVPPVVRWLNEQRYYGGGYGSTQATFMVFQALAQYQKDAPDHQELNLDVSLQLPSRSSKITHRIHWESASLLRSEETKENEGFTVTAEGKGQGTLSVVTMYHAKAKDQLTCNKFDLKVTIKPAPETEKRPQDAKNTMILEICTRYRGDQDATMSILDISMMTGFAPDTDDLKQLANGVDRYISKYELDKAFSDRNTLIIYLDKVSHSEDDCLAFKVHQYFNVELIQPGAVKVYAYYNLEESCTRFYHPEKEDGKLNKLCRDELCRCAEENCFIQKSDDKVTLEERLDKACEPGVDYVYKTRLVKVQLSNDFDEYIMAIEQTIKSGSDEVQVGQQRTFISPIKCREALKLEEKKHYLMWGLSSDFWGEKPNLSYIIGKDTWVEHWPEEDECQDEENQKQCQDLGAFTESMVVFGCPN
Sequence of human C3b (P01024 23-667 limits assumed, chain 2 of 2): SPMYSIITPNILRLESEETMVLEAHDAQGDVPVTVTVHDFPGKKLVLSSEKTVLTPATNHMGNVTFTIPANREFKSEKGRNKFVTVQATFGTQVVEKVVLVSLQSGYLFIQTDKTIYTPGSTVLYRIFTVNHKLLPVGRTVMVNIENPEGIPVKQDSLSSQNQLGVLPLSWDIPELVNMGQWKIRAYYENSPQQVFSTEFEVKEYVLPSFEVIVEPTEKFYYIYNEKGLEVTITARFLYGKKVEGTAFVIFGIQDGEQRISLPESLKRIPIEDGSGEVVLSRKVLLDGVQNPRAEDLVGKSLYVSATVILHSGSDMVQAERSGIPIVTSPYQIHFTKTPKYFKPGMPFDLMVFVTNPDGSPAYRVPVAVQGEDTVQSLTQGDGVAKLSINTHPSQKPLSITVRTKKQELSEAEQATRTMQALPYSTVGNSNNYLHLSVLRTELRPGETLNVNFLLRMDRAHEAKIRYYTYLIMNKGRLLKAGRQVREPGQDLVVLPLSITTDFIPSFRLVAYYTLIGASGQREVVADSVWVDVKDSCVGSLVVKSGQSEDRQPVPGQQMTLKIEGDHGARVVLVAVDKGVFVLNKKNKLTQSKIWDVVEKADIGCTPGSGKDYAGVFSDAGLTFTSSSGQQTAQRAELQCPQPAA

B1: Factor H (Sigma) (other, UniProt P08603 19-1231, looked up)
chain: EDCNELPPRRNTEILTGSWSDQTYPEGTQAIYKCRPGYRSLGNVIMVCRKGEWVALNPLRKCQKRPCGHPGDTPFGTFTLTGGNVFEYGVKAVYTCNEGYQLLGEINYRECDTDGWTNDIPICEVVKCLPVTAPENGKIVSSAMEPDREYHFGQAVRFVCNSGYKIEGDEEMHCSDDGFWSKEKPKCVEISCKSPDVINGSPISQKIIYKENERFQYKCNMGYEYSERGDAVCTESGWRPLPSCEEKSCDNPYIPNGDYSPLRIKHRTGDEITYQCRNGFYPATRGNTAKCTSTGWIPAPRCTLKPCDYPDIKHGGLYHENMRRPYFPVAVGKYYSYYCDEHFETPSGSYWDHIHCTQDGWSPAVPCLRKCYFPYLENGYNQNYGRKFVQGKSIDVACHPGYALPKAQTTVTCMENGWSPTPRCIRVKTCSKSSIDIENGFISESQYTYALKEKAKYQCKLGYVTADGETSGSITCGKDGWSAQPTCIKSCDIPVFMNARTKNDFTWFKLNDTLDYECHDGYESNTGSTTGSIVCGYNGWSDLPICYERECELPKIDVHLVPDRKKDQYKVGEVLKFSCKPGFTIVGPNSVQCYHFGLSPDLPICKEQVQSCGPPPELLNGNVKEKTKEEYGHSEVVEYYCNPRFLMKGPNKIQCVDGEWTTLPVCIVEESTCGDIPELEHGWAQLSSPPYYYGDSVEFNCSESFTMIGHRSITCIHGVWTQLPQCVAIDKLKKCKSSNLIILEEHLKNKKEFDHNSNIRYRCRGKEGWIHTVCINGRWDPEVNCSMAQIQLCPPPPQIPNSHNMTTTLNYRDGEKVSVLCQENYLIQEGEEITCKDGRWQSIPLCVEKIPCSQPPQIEHGTINSSRSSQESYAHGTKLSYTCEGGFRISEENETTCYMGKWSSPPQCEGLPCKSPPEISHGVVAHMSDSYQYGEEVTYKCFEGFGIDGPAIAKCLGEKWSHPPSCIKTDCLSLPSFENAIPMGEKKDVYKAGEQVTYTCATYYKMDGASNVTCINSRWTGRPTCRDTSCVNPPTVQNAYIVSRQMSKYPSGERVRYQCRSPYEMFGDEEVMCLNGNWTEPPQCKDSTGKCGPPPPIDNGDITSFPLSVYAPASSVEYQCQNLYQLEGNKRITCRNGQWSEPPKCLHPCVISREIMENYNIALRWTAKQKLYSRTGESVEFVCKRGYRLSSRSHTLRTTCWDGKLEYPTCAKR
notes: Bought protein; also called FH
B1: the binding result in experiment [1] is reported as “no binding (tested: 10 µg/well)”.

B2: recombinant FHR-5 (rFHR-5), polyhistidine-tagged, expressed in insect cells (other)
chain: EGTLCDFPKIHHGFLYDEEDYNPFSQVPTGEVFYYSCEYNFVSPSKSFWTRITCTEEGWSPTPKCLRMCSFPFVKNGHSESSGLIHLEGDTVQIICNTGYSLQNNEKNISCVERGWSTPPICSFTKGECHVPILEANVDAQPKKESYKVGDVLKFSCRKNLIRVGSDSVQCYQFGWSPNFPTCKGQVRSCGPPPQLSNGEVKEIRKEEYGHNEVVEYDCNPNFIINGPKKIQCVDGEWTTLPTCVEQVKTCGYIPELEYGYVQPSVPPYQHGVSVEVNCRNEYAMIGNNMITCINGIWTELPMCVATHQLKRCKIAGVNIKTLLKLSGKEFNHNSRIRYRCSDIFRYRHSVCINGKWNPEVDCTEKREQFCPPPPQIPNAQNMTTTVNYQDGEKVAVLCKENYLLPEAKEIVCKDGRWQSLPRCVESTAYCGPPPSINNGDTTSFPLSVYPPGSTVTYRCQSFYKLQGSVTVTCRNKQWSEPPRCLDPCVVSEENMNKNNIQLKWRNDGKLYAKTGDAVEFQCKFPHKAMISSPPFRAICQEGKFEYPICE
notes: Insert amplified from immediately downstream of the signal peptide-encoding region to the end of the ORF (mature FHR-5, 551 amino acids); also called His-tagged recombinant protein; not shown: 10-histidine tag coded by vector pFASTBAC1-His10+ (after a gp67 signal peptide)
For B2, the binding result in experiment [2] is given as “no binding (tested: 10 µg/well)”; in experiment [3], “no binding (tested: 10 µg/well)”; in experiment [4], “binds”.
